B1: AAAGCTCCTTGGAATAGTCTAATACCGGA (nucleic acid)
DNA: ATCCACGAGTGACGCAGCACGAGCAACACAAAAGCTCCTTGGAATAGTCTAATACCGGAGCGAGAAAGCTGGACACGGTGGCTTAGT
modifications: listed as DNA, chemistry not given here
notes: TIC-specific DNA aptamer
B2: GACGAGCTAAGAACCTTTAGGAGTGGAAA (nucleic acid)
DNA: ATCCACGAGTGACGCAGCACAGAGTGGAAGACGAGCTAAGAACCTTTAGGAGTGGAAAAGATAGCTCATGGACACGGTGGCTTAGT
modifications: DNA, backbone and methylation of C not given here
notes: TIC-specific DNA aptamer
B3: AGAACTGGCCTTACTACGAAAAGTCCTTG (nucleic acid)
DNA: ATCCACGAGTGACGCAGCACCGAGAGGAGAGAACTGGCCTTACTACGAAAAGTCCTTGGTTGCCAGGGGTGGACACGGTGGCTTAGT
modifications: listed as DNA, chemistry not given here
notes: TIC-specific DNA aptamer
B4: CCGTAGCTACGACGGAGGAAACTATGTTA (nucleic acid)
DNA: ATCCACGAGTGACGCAGCATGTTTAGGAAACCGTAGCTACGACGGAGGAAACTATGTTAAACATCCCCATGGACACGGTGGCTTAGT
modifications: DNA, backbone and methylation of C not given here
notes: TIC-specific DNA aptamer
B5: TGTGTATAAAGGGGCGGTGAAAAGCGAAT (nucleic acid)
DNA: ATCCACGAGTGACGCAGCACAGTGATCAGTTGTGTATAAAGGGGCGGTGAAAAGCGAATTCCAGTCGACTGGACACGGTGGCTTAGT
modifications: listed as DNA, chemistry not given here
notes: TIC-specific DNA aptamer

What was measured:
[1] = test system: GS5, a well-characterized TIC line; assay: GS5 proliferation; assay type: cell-based
GS5 = GS5 sphere formation (TIC self-renewal); assay type: cell-based
From the text: (§2) We further evaluated whether this drug delivery system can be used to treat TIC-derived tumors. […] We successfully encapsulated DI into our brain-penetration nanoparticles, which were administrated via a single infusion into rat brains bearing GS5-derived tumors.

CD133+ cell population = assay: CD133+ cell population; assay type: cell-based
From the text: as §2

GS5-derived tumors = assay: Survival of rats bearing GS5-derived brain tumors after a single infusion; assay type: in vivo; settings: single infusion into rat brains bearing GS5-derived tumors
From the text: as §2

[2] = test system: GBM cells from GBM1 (08-387), GBM2 (4121), GBM3 (08-322), GBM4 (3691) xenografts; assay: Neurosphere formation assay of aptamer-high vs aptamer-low GBM cells; assay type: cell-based, human; settings: four GBMs tested
Experimental: After overnight recovery of GBM cells from tissue dissociation, each Cy5-labeled aptamer was incubated with each specimen for 30 min. After washing thrice, labeled GBM cells were subjected to cell sorting. For the sphere formation assay, 10 cells of either aptamer^high and aptamer^low GBM cells sorted by FACS were directly plated into each well of a six well plate containing 200 μL of TIC culturing medium similar to our prior descriptions. After 10 to 14 days, the number of tumorspheres in each well was counted and plotted. For the cell proliferation assay, aptamer^high and aptamer^low GBM cells were sorted into each 15 mL tube, and equal numbers of cells were plated into 96 wells. Differences in cell growth were measured using Cell-Titer Glow (Promega™) according to the manufacturer's instructions and prior reports. Hjelmeland et al., PLoS biology, 8:e1000319 (2010); Li et al., Cancer cell, 15:501-13 (2009).

[3] = test system: GBM1 (08-387) cells injected intracranially; assay: In vivo tumorigenic potential of aptamer-high vs aptamer-low GBM cells; set-up: species or system mice; settings: for tumor incidence, aptamer-high cells / tumor incidence, aptamer-low cells: 300 cells implanted; for survival of mice injected with aptamer-high cells: 3000 or 300 cells intracranially, vs aptamer-low cells
Experimental: To determine tumorigenic potential, 300 or 3000 viable aptamer^high or aptamer^low GBM cells were intracranially injected into athymic/nude immunocompromised mice as we have previously described. Animals were maintained until the development of neurological signs including lethargy, seizure, ataxia, or paralysis or for a maximum of 60 days, when they were sacrificed. All animal procedures were performed in accordance with a Cleveland Clinic IACUC approved protocol.

TICs = assay: Flow cytometry to monitor aptamer binding to TICs; set-up: species or system human; settings: GBM1, GBM2, GBM3
Experimental: (§1) Each FITC-labeled aptamer candidate was incubated with TICs or non-TICs in binding buffer on ice for 30 min. The cells were washed three times with binding buffer, and the pellets with the bound sequences were resuspended in 200 μL binding buffer. The fluorescence intensity was determined with a LSR II (BD Immunocytometry Systems) by counting 10,000 events. The FITC-labeled unselected single strand DNA library was used as a negative control. To determine the specificity of the selected aptamers, aptamer binding to additional GBM cells (08-322, 4121, U87MG) or neural progenitors (RenCell c-myc immortalized human neural progenitors, Millipore; human fetal neural progenitors, Lonza) was determined. For determination of aptamer binding to differentiated TICs, TICs were plated on Geltrex-coated plates in the presence of 10% serum and harvested after five days for FACS analysis.
To further evaluate the specificity of TIC-enriched aptamers, the fold change in fluorescence was calculated. Fluorescence shift was calculated using the equation (Faptamer−Fcell)/(Flibrary−Fcell), where Faptamer, Flibrary and Fcell refers to the fluorescence value of the aptamer, library, and cell itself. Using this calculation, specificity of aptamers A2-A6 for TICs in comparison to non-TICs was shown for all three GBMs tested (FIG. 2A-C).

[4] = test system: ReNCell CX immortalized human neural progenitors or primary human fetal neural progenitors; assay: Flow cytometry aptamer binding to non-neoplastic neural progenitors
Experimental: as §1

Row | Molecule | neurosphere formation capacity of aptamer-enriched cells [2] | tumor incidence, aptamer-high cells [3] | tumor incidence, aptamer-low cells [3] | survival of mice injected with aptamer-high cells [3] | also measured
1 | CCN1/C(=C/C=C/C=C/c2sc3ccccc3[n+]2CC)Sc2ccccc21 [DI, dithiazanine iodide] | – | – | – | – | IC50 [1]: 0.079 µM; inhibition of GS5 sphere formation (GS5): 94%; decrease of the CD133+ cell population (CD133+ cell population): 57%; median survival (GS5-derived tumors): 177 days
2 | B1 | significantly segregated cells with neurosphere formation capacity in all four GBMs tested | All mice | 3 of 4 | significantly reduced | –
3 | B2 | greater neurosphere formation capacity in three of four GBMs tested | – | – | – | fluorescence shift (Faptamer−Fcell)/(Flibrary−Fcell): specificity for TICs in comparison to non-TICs (TICs): greater binding to TICs in GBM1 and GBM2, but not GBM3
4 | B3 | significantly segregated cells with neurosphere formation capacity in all four GBMs tested | – | – | – | –
5 | B4 | significantly segregated cells with neurosphere formation capacity in all four GBMs tested | – | – | – | –
6 | B5 | greater neurosphere formation capacity in three of four GBMs tested | All mice | 2 of 4 | significantly reduced | binding to nonneoplastic neural progenitors [4]: bound both sets of non-neoplastic brain cells

Reference: patent US9731032B2, “Aptamers for tumor initiating cells” (THE CLEVELAND CLINIC FOUNDATION, priority 2013, dated 2017)
